Values of other authors in paper PMC8588233.
Read-outs that look alike come from different tables or passages of the source.

Assays:
[1] = biological target: HER2 (Homo sapiens) (UniProt P04626)
[2] = biological target: HER2 (Homo sapiens) (UniProt P04626); remark: listed apart in the source
[3] = biological target: HER2 (Homo sapiens) (UniProt P04626); remark: listed apart in the source

## AHNP
[1]
  Kd: 0.395 µM

## AHNP (111In-DTPA-peptide-PEG)
[2]
  Kd: 0.3 µM

## KCCYSL peptide
[3]
  Kd: 0.295 µM
